Literature values in paper PMC11346460.

Biological target: RIG-I (Homo sapiens) (UniProt O95786)
Sequence of UniProt O95786 (O95786 whole entry): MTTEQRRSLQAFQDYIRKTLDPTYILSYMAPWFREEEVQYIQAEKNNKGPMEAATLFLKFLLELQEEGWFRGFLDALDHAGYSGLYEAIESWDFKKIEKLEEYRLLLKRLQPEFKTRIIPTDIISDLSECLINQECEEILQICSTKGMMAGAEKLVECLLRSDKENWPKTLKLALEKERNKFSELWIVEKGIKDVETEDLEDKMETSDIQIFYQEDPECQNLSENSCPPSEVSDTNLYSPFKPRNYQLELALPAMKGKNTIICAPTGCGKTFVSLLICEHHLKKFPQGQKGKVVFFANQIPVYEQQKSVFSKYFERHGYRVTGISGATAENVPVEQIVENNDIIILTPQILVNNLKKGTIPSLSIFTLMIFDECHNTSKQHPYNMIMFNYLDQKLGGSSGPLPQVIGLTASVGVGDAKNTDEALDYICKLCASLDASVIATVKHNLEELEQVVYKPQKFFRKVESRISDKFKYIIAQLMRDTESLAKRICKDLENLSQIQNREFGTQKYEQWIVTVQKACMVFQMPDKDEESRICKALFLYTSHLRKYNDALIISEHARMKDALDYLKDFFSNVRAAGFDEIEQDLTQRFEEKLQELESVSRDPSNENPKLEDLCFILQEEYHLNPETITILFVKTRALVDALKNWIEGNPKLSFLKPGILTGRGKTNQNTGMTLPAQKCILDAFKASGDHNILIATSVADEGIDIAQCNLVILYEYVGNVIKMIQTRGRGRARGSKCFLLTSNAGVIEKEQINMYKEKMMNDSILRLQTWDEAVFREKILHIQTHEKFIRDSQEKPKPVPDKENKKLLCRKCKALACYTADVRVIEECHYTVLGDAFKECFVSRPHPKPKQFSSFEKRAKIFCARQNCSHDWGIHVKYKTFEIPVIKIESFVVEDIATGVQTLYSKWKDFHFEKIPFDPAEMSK

Kd: 6.6 nM
Substance: RIPLET (from UniProt Q8IUD6)
